{"source": "patent US20240424106A1", "about": "“CONJUGATE PHARMACEUTICAL PREPARATION, PREPARATION METHOD THEREFOR AND USE THEREOF” (COHERENT BIOPHARMA (SUZHOU) LIMITED, priority 2021, published 2024)", "key": {"[1]": {"assay": "Screening of amount of pH regulator: dissolution in intermediate solutions", "assay_type": "physicochemical", "conditions": "0.5% sodium citrate solution after mannitol was added and CR19213 was dissolved", "method": "The solubility of CR19213 is related to the pH value of a solution, and the amount of the pH regulator (expressed as the concentration of a buffer salt) directly influences the pH value of the solution. Therefore, the concentration of the buffer salt needs to be screened. Since CR19213 was added to the sodium citrate solution with pH 7.0, and completely dissolved to form an acidic solution, a 1.0% sodium citrate solution (11.4 mg/mL) with pH 7.5 (regulated with citric acid) was prepared in order to make the finished product be more near-neutral, and diluted with water to obtain sodium citrate solutions at concentrations of 0.1%, 0.25%, and 0.5%, respectively. Intermediate solutions were prepared using the above-mentioned sodium citrate solutions with different concentrations. The dissolution in the intermediate solutions during the preparation were investigated.\n(1) a 1.0% sodium citrate solution with pH 7.5 (regulated with citric acid) was prepared for later use;\n(2) dilution was carried out with water to obtain 0.1%, 0.25% and 0.5% sodium citrate solutions, respectively;\n(3) a prescribed amount of mannitol was weighed, 70% of the total amount of the sodium citrate solution was added, stirring was carried out for dissolution, then a prescribed amount of CR19213 was added, and stirring was carried out for dissolution in a dark place at room temperature; and […]"}, "[2]": {"assay": "Stated solubility and sensitivity of CR19213"}}, "data": [{"compound": "CCC(C)C(C(CC(=O)N1CCCC1C(OC)C(C)C(=O)NC(C)C(O)c1ccccc1)OC)N(C)C(=O)C(NC(=O)C(C(C)C)N(C)C(=O)OCc1ccc(NC(=O)C(CCCNC(N)=O)NC(=O)C(NC(=O)CCCCCN2C(=O)CC(SCC(NC(=O)C(CCCCN)NC(=O)C(CC(=O)O)NC(=O)C(CC(=O)O)NC(=O)Cc3ccc(CNC(=O)NCCCCC(NC(=O)NC(CCC(=O)O)C(=O)O)C(=O)O)cc3)C(=O)NC(CCCCNC(=O)CCC(NC(=O)c3ccc(NCc4cnc5[nH]c(N)nc(=O)c5n4)cc3)C(=O)O)C(N)=O)C2=O)C(C)C)cc1)C(C)C", "note": "(stereo not drawn) [CR19213]", "values": [{"measurement": "pH value", "setting": "[1]", "value": 5.95}, {"measurement": "Oxidation in solution", "setting": "[2]", "value": "easily oxidized"}, {"measurement": "Sensitivity to temperature", "setting": "[2]", "value": "sensitive"}, {"measurement": "Solubility in water", "setting": "[2]", "value": "poorly soluble"}, {"measurement": "Stability to acids and alkalis", "setting": "[2]", "value": "unstable"}, {"measurement": "Sensitivity to illumination", "setting": "[2]; raw material", "value": "sensitive"}]}]}
